Laboratory results published in the domain aggregation screens of Martell et al. (2025).

Assay: soluble fraction after stress (log2 fold change); higher = more stays soluble; pooled small domains, quantitative proteomics
Conditions: stress: pH 4
Method in brief: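 Custom libraries of small protein domains were pooled and exposed to pH 4. High-throughput quantitative proteomics then measured the log2 fold change in the amount of each domain still soluble, with higher values meaning more stayed soluble. This soluble-fraction fold change stands for aggregation propensity.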

HMSDLTEVIVKFSGDIQPIRQDLDAQVEILLKGYAIITLSPNKIGRLYSYPQIESIEIPKNLYI
soluble fraction (log2): -0.833

HMDIVEIYVGEEDGERIDSYLAQELNNVSRSYVQGLIKNQLITVNGNHVKPKHIVKEGEHIIVNIPPPKV
soluble fraction (log2): -0.108

HMQKTQVVEVAGKSYQLTKMDARTGSYVAFKVAGVLAPSGGKTAEMAAALMGMPRKDFDELQSLLLRTV
soluble fraction (log2): ≥ 0.43

HMDAPLIIAETRVDVPDATVSDAVMMLDLRNTNALLFKNSGSGVLNMVYRRGDGTIGWGEPQ
soluble fraction (log2): -0.543

HMSSKAVLEKFEALFIDQMLQSMRKATVRSELFDSEGIKLYESLFDKEISEELAKSGGLGLTKDLEQQL
soluble fraction (log2): -1.35

HMIETIQVPRAFNDWHEQADKTKSVFEVYAEIEASENEKLIAWVRNNQNEFAKIWLGALIPELE
soluble fraction (log2): -1.24

HMATPAFEMYKVRRGDTPAGLAKEWGFPDMASFYRINPDARSDWKRGLQLVKPMNEMAVLQATA
soluble fraction (log2): 0.109

HMTEKIEWYKEVLELEPNSKVFFPLARMLAEEQRFDEAVAVLEHGLERHGEFLEARLFFIELLHET
soluble fraction (log2): -2.04

HMARDPWDVLGVAKTATNDEIKRAFKRQAMMTHPDKQGGSEERFKEVNEAYSHIKDEQSRAKYQNSQ
soluble fraction (log2): 0.0164

HMSMSTVGERIKKKRKNLNFTQQELAAKLNISAQAVSKWENGVALPDLGLMPKLAQVLESTVDGLLGYQGA
soluble fraction (log2): -0.235

HMGQVPPLTRRETEIARLVSRGLSNKEIASTLVISPRTAEGHVEHILDKLGFSSRTQIATWLNEQTRNGK
soluble fraction (log2): 0.313

HMNIQKYFAGREQFIELLEAVGIRTLEQFASADPSTVLPELHQAKRMLKLQTEIPSAPVFREWVNQALS
soluble fraction (log2): -0.901

HMRRGFGYVRKLPSGRWQASFVGPDLARHSAPHTFETKGDAEGWLGRRQADVVAGEWRPPVP
soluble fraction (log2): 0.321

HMAWIAVATKEDYSEYEWKELSPTTDWSTQTFDLGDLAGKTIYAVKMFFDHDTDVKDYKFNLGQLSITSN
soluble fraction (log2): -1.22

HMEILTRQLTHYLHLLPPAQQEVVRGVYLQDQTLQEIADRVQIPLGTVKSRLRLGLSKLREQIEQEHE
soluble fraction (log2): 0.291

HMPELPEVETSRRGIEPHLVGATILHAVVRNGRLRWPVSEEIYRLSDQPVLSVQRRAKYLLLELQA
soluble fraction (log2): 0.369

HMDVRLAKVYMLPANPYLRFIEFDDGTHGKFRAKPGKFGLGSVVKVKREDGDMYTLEGNYDGKDRL
soluble fraction (log2): 0.152

HMQGPDPYAVLGIDRHADERAIKRAYRKLISEHHPDRLGDLPEDMRKRAESRASEINAAYDRIKEARGF
soluble fraction (log2): 0.13

HMSTINGIEKYLSSGLIPYIGPKTAKRIVEKFGLDTLEIIQYNPERLKEIEGIGDKKLKKIVEAFEEQG
soluble fraction (log2): -0.333

HMKKVKVPNVVGMSLKEARDALSAVNIAVNQVAGSVEDKSVVTEQSLKAGDEVDEGSSLNLTTEYK
soluble fraction (log2): 0.412

HMEKIIGQIQINQRGNGYVIVPNVKDDIFVKRENLNSARQGDRVAVQLLSRPNQKPEGLVQEVLERGQ
soluble fraction (log2): 0.071

HMNQSAVMAERMKQTKNRILQTAKEIFLEQGYKRTTIRQIVERSGITSGSIYNIFSSKEEIFSALVDDL
soluble fraction (log2): -1.77

HMNGTGSVYKLSGKRRNPWRAVVTNGWAYNEEKGKLVQNRVTIGYYHTRDEAIQAIANYNSSP
soluble fraction (log2): -0.125

HMKALEGMRTVFTLADLATEPVTVEITVLEAFKYTTTLEIVQRPVLREWMTNPSMLIRVYHDASTAE
soluble fraction (log2): -0.138

HMKTLLSMNIKNLRKKKNMTLEELAEKVGTSKQTIQRYESGKISNIPSDKIELLAKYLDTTPAKLMGW
soluble fraction (log2): 0.187

HMASLSITVNGETRRAAPGSIADLVRAIGLDPAKVAVERNGEIAPRSTLADVALADGDVLEIVHFVG
soluble fraction (log2): 0.147

HMAVRTELLALPAGWHGDASRLSTALAALQGVREAVVIASEGVAYLKVHGHDWDRDGARELLQN
soluble fraction (log2): -0.199

HMIPSLTITVNEHSRQITRGTSLYTLRDALYPDADVLVVNGHPADSDRHLEEGDAVVLIRRGA
soluble fraction (log2): -0.394

HMNEKMKEIGLRIKELRELSDISAQGMADHLKIPLETYQEYEDGKKDIPASILFEISQKMEVDMGLLLTGE
soluble fraction (log2): -0.253

HMRDKSITFSEFVKLLDEGQIQKVTLTGNEILGTQKSGDKFRTYAPPQYEGLGNKLVERSVEVTAKE
soluble fraction (log2): 0.188

HMNKKEIISVLEKIIPPSQIKNINIFGSELVIDLNIDNPSLHAKKKLEKSIMSSFDENLKIIVNFSVE
soluble fraction (log2): 0.22

HMEGVTVPDVTRISLDEAEELLTSYGLRFEVADRRANSAFPGNYVIDQAPSAEVIVKPNRKIYLTVNAA
soluble fraction (log2): -0.188

HMKRNLVSVLDHIVGIGPKRRQSLRTHFGSLEKIKEASVEELAAAPGMNRTSAEAVRHFFDAQQELRGK
soluble fraction (log2): 0.207

HMAQISDESALYDLVKSVLDANPQSIADYKAGRDRALGFLMGQAMKLSKGKANPPVINKILKEMLDK
soluble fraction (log2): 0.292

HMNPNPYIVLGVDKSMPFGEIKKVYQRKRREFHPDSLVAKGLPDELLQKAQDKFIAIQEAYKSIEKNQV
soluble fraction (log2): 0.0331

HMRPDDPYLVIGASREMGDEELKRHYRRLVAETHPDRGIARGLPAEAIAIATRRLAAINAAWDAIERERGL
soluble fraction (log2): -0.158

HMNKLSISALAETVSTKRKEKSMTQQDLSDATGINRALISRLEQKDFIPSIPQLEKLEEILGFELEEVF
soluble fraction (log2): -0.998

HMTLGPKQMGEAIIKNLKEKTGKSLEEWSQRILIHELTDKKEIIDFLKNDNGLGHFQALKIFEHLNGK
soluble fraction (log2): -0.652

HMDTRQFWEQWVADEIRTFEHKDRKQLFGWFEGNKPKLGQMKKLGYGDLLTKVQTSWDEIYQQKE
soluble fraction (log2): 0.29

HMAPRDKADKYVAAGIAEELVPILQKVGYYLVTDLKDVKAQKIQQQIGEIIKKYKLDIEKPSVQDIEGWN
soluble fraction (log2): -0.259

HMAYRLDVRNQTKGTYLVIQKKYWDKEKKQSRTKHHMSLGYVHDLQKLYSDPITHYKEVINQMNAEEKG
soluble fraction (log2): 0.0253

HMVNIEAEVGRRLRQLRARRGLSLRALADLSGLNVNTLSLIENSKTSPSVSTLQQLARSLQVPITTFFESD
soluble fraction (log2): 0.142

HMTLGSVRTVRQVLDDGRLLVADSGGNVTLVRRAGTLAKENVNTGDRVSVDSSVRFALTLIPV
soluble fraction (log2): -0.00374

HMEPQSRTAYRLIEAMIVTHELPPGSRISEASLSAKLGIGRTPIREALQRLSFEGTVKIVPRSGAFVSEI
soluble fraction (log2): 0.183

HMSTEDYLKTIYILESQQGVHGSDVARMLKVTRPTVSIALKALEQEGYVWMDESRLVHLTDSGLQIAKDT
soluble fraction (log2): 0.149

HMVSFAEQASDWLAHFDRLGDVGPDTTLTDLTARDAEFSAWVNEGIHHRVAFLETLAAWHRTER
soluble fraction (log2): -0.0379

HMDTYDSIDSILEERHLSRRKLAQAIGLPPSTFQSMMSRKSGMTLEVLMKIVSYLQVSPDAFW
soluble fraction (log2): 0.061

HMAERLQARIDAPGVRLDKALAETFPTLSRARLQALLADGAVTRDGQTVSNGSAKAQPGLYVVALPPVA
soluble fraction (log2): 0.316

HMLAEEAFNKQAATAGYVYRDGSYHPAASVAQYDAMPRNYRTNTMAQELSRSQVESQLQQSQ
soluble fraction (log2): -0.104

HMKININEASRYELMTIGGLDAGRADMLMQYRQKREISSADELKGINGFASYDTAKLQKSFEISP
soluble fraction (log2): 0.00275

HMVSLEEIINDLTSRIQTAVKMRFSDFVQNRKERVGVIVSFLGMLELVKQGIIDIKQEGHFADIEMETA
soluble fraction (log2): -0.58

HMSDTSELESIIAQIIEDNPKSIEDIGAGNQKAYGFLTGQVMKATKGQANPQVANKIIRELVARKLE
soluble fraction (log2): -0.41

HMQQEAVSGKLLQLDLAKKEGRLSTDLGREVLFHIPKPELFVHLSVGQRIIIKLDAGQEAVGV
soluble fraction (log2): 0.0773

HMGDADDLSRELLQQGLSLKEAVADFERRYLQQAMQRHSSIASVSEALDVHFSTLWRKLVKYNLV
soluble fraction (log2): -0.621

HMGYVQLTAREKEVLQGLVDGASYKMIAAKLDIRFGTVHTHVKNIYEKLHVNSASEAVVKAIRQRL
soluble fraction (log2): -0.743

HMKIELSDNEKIIYDLLSSQHVLLSEIKDKAGLSNKAWDKSTKSLRKLGLIAVEKKDDDIYISKL
soluble fraction (log2): 0.247

HMTAFSEQLIKLRKQKGLSQEQLGAAVGVTRQTVSKWELGDTTPELGKLVQLSDYFQLSIDELVGH
soluble fraction (log2): 0.177

HMTVPTEVALELMHATALEDNEQRILYIASFKEKHREHLHATIEVDGQEVTLARYADLVATGAYL
soluble fraction (log2): -2.15

HMGDTPVDFSEFIRWVDTGVVDRVELTGNEIVGTSSSGERFSTYAPPQYEGLGNKLIERDIVVVATAA
soluble fraction (log2): -1.21

HMVGDMLTQKDSEGLTAYLYQQGIISQREMLLLNGILKDRVLTGMEKGQRDSVRASMVQHLLAMLNMM
soluble fraction (log2): -1.55

HMTEEEEFEKGFEILVNLSHFNRFSVYKEDEYVIVRIADYDFNEYFKVKKSDVGRIAEFLNENIT
soluble fraction (log2): -1.86

HMADIWDLLRSEYKLTETDVRMLTDMLPDELMNDFRSEVLALRDRMNRYKVNNPKSYVVTSLKNFIIQHTP
soluble fraction (log2): -0.787

HMQSEESTHIGERMLNQALRAMHVEPSAVKEKQWEKLIRDYSVKNKQDILTDIGLGKRQSVMVAHQLLAI
soluble fraction (log2): -0.028

HMAAMDMFVKLDALDAELTEQLKALPAEPDDARVERGLALLTDYDHRIKALLTEIFGGENDFDKVL
soluble fraction (log2): -2.25

HMTGMDALIGRRVFVSEEILPGDAGGRVAVDGDSWRAISVGTAKPIPAGTEVRIHGYKSLILEVEPI
soluble fraction (log2): 0.0974

HMPGMLVVYVTGAVRQPGRMVTLAAGSRVSDAIDAAGGLADDADAQALNLSARLNDGDLVHVPSALD
soluble fraction (log2): -0.227

HMARAPIYPDGLTQREVEVLSLVAAGKTDREIAEELFIALRTVTTHVGNILNKIGAANRTEAAGYATRQGL
soluble fraction (log2): -1.4

HMEVDDEAIYQGHEPSIRLHRLLKDVGYNSALLPSVVTQIFKDFPGIELAKALPIAMQLLNED
soluble fraction (log2): -1.47

HMNNVDIMGRMVYDDQHREVINFGKYKGVLVTEVLKKDPGYFSWIQQGDFPSDMKRIMMAIKLRM
soluble fraction (log2): -0.72

HMTSTEQEILIEHMVDRLPALRKKYGISQTELGEKIGLSRQTISAIERKTTPLTWTTMLAILMFFT
soluble fraction (log2): -0.425

HMQLYSLEVLSKKKVDLIENNKNLINLYFNKENGEYSYRLIFKNRKELYQVKDTLDNSSDVVSIKLDL
soluble fraction (log2): -0.181

HMETVVTEVKTTDVVNIRTSDSETADKLSKAAIGDTFPLLEERGNGWSKVAYNGEEAFIKSDYLEPSKTE
soluble fraction (log2): -0.654

HMRIAQYRQIENDLLEQINLGYYKKGDLIPTELELSATYHVSRVTVRKATDNLVAKGILQRVAGVGTFVSR
soluble fraction (log2): 0.0958

HMKLIRIPFILTEGPDSQKITIDVDGDEEFRLGDVFEEDDKLWTVNQILVSGERKAKRSMAGEVMRISALR
soluble fraction (log2): -0.696

HMDNMTEMQKAVTALIEKSGGSIDNLSVIYDHLKKKYPSFDLKDYGYSRFSSFLRSMENIMVRGNAVTLRS
soluble fraction (log2): 0.0508

HMIVMPELRGKDLKEAERLLSSHNLRYELVDSVYDKSLAPGVVVEMVPQSGNTVKPGRIIFLSINA
soluble fraction (log2): -0.272
